Reference: the Immune Epitope Database (IEDB)

Columns and labels:
Assay in all cases: IEDB peptide-MHC binding, purified MHC/competitive/radioactivity; filed as Kd, often an IC50 or EC50 that approximates it; ≥ and ≤ were set here for values at or beyond the usual limits of such assays
HLA-A*11:01 = biological target: HLA-A*11:01
HLA-A*33:01 = biological target: HLA-A*33:01
HLA-A*31:01 = biological target: HLA-A*31:01
HLA-A*03:01 = biological target: HLA-A*03:01
HLA-A*68:01 = biological target: HLA-A*68:01
[1] = source organism: SARS coronavirus Tor2
[2] = source organism: Dengue virus 2 Jamaica/1409/1983
[3] = source organism: Vaccinia virus WR
[4] = source organism: Dengue virus 1 Singapore/S275/1990
[5] = source organism: Vaccinia virus Copenhagen
[6] = source organism: Mammarenavirus guanaritoense

Sequence | Kd (HLA-A*11:01; [3]) [nM] | Kd (HLA-A*33:01; [3]) [nM] | Kd (HLA-A*31:01; [3]) [nM] | Kd (HLA-A*03:01; [3]) [nM] | Kd (HLA-A*68:01; [3]) [nM] | other results
RTELGVEFLK | – | – | – | – | – | Kd (HLA-A*11:01; [1]): 52.4 nM; Kd (HLA-A*33:01; [1]): 15900 nM; Kd (HLA-A*31:01; [1]): 1350 nM; Kd (HLA-A*03:01; [1]): 962 nM; Kd (HLA-A*68:01; [1]): 9720 nM
VTCAMFTCKK | – | – | – | – | – | Kd (HLA-A*11:01; [2]): 97.7 nM; Kd (HLA-A*03:01; [2]): 86.7 nM
ETAKVIKLVK | 192 | ≥ 70000 | 9310 | 1610 | 21.4 | –
VVRDFENYVK | 30.7 | 8050 | 269 | 24.9 | 71.3 | –
YFISIYSRPK | 853 | 107 | 112 | 220 | 25.2 | –
IVSSVNMISR | – | – | – | – | – | Kd (HLA-A*33:01; [2]): 88.5 nM; Kd (HLA-A*68:01; [2]): 16.2 nM
LMTLMKGASK | – | – | – | – | – | Kd (HLA-A*03:01; source organism: Dengue virus 4 Philippines/H241/1956): 273 nM
DSMDVLAEKK | 762 | 3540 | 1000 | 343 | 1.68 | –
YSYATHHDK | – | – | – | – | – | Kd (HLA-A*11:01; [1]): 30.5 nM; Kd (HLA-A*33:01; [1]): ≥ 26200 nM; Kd (HLA-A*31:01; [1]): 3470 nM; Kd (HLA-A*03:01; [1]): 16.4 nM; Kd (HLA-A*68:01; [1]): 16.3 nM
ATAHSELAK | – | – | – | – | – | Kd (HLA-A*11:01; [1]): 5.33 nM; Kd (HLA-A*33:01; [1]): ≥ 77700 nM; Kd (HLA-A*31:01; [1]): 18500 nM; Kd (HLA-A*03:01; [1]): 11.6 nM; Kd (HLA-A*68:01; [1]): 19.2 nM
IVQLPKRGVR | ≥ 25700 | 12500 | 1230 | 15800 | 19000 | –
NMLNIMNRR | – | – | – | – | – | Kd (HLA-A*33:01; [4]): 13.3 nM; Kd (HLA-A*31:01; [4]): 5350 nM
SSSLDQTHIK | – | – | – | – | – | Kd (HLA-A*11:01; [5]): 4.92 nM; Kd (HLA-A*33:01; [5]): ≥ 26000 nM; Kd (HLA-A*31:01; [5]): 868 nM; Kd (HLA-A*03:01; [5]): 90 nM; Kd (HLA-A*68:01; [5]): 850 nM
QMRTPLHKY | 1760 | ≥ 77700 | 7830 | 141 | ≥ 77700 | –
NIISRTRLY | 1020 | 10200 | 3910 | 375 | 879 | –
RSIAMLKSK | 3.11 | ≥ 77700 | 1500 | 216 | 637 | –
TLDTMDDMK | 466 | ≥ 77700 | ≥ 77900 | 11800 | 373 | –
MLVYCFLGY | – | – | – | – | – | Kd (HLA-A*11:01; [1]): 120 nM; Kd (HLA-A*33:01; [1]): 7380 nM; Kd (HLA-A*31:01; [1]): 907 nM; Kd (HLA-A*03:01; [1]): 136 nM; Kd (HLA-A*68:01; [1]): 1140 nM
TCITSMAER | – | – | – | – | – | Kd (HLA-A*11:01; [6]): 17400 nM; Kd (HLA-A*33:01; [6]): 2630 nM; Kd (HLA-A*31:01; [6]): 559 nM; Kd (HLA-A*03:01; [6]): ≥ 67000 nM; Kd (HLA-A*68:01; [6]): 243 nM
